For this assay, the target named is chymotrypsin (bovine).

Regarding “scabies mite serpin SMSB3, wild type (from UniProt A0A131ZZL5 20-427) (natural protein)”, the stoichiometry of inhibition (SI) from residual chymotrypsin activity at a 2-120:1 molar excess of SMSB3 came out at 12.9.

Source of the values: PMC3394726.
